From the supplement of paper PMC7877785
± gives the uncertainty stated by the source.

Assay: self-splicing fitness, log relative to wild type (ln ratio); higher = more splicing; Tetrahymena group I intron in knt gene, E. coli kanamycin selection, DiMSum; sequences stand for … in CUCUCU…GGAGGGAAAAGUUAUCAGGCAUGCACCUGGUAGCUAGUCUUUAAACCAAUAGAUUGCAUCGGUUUAAAAGGCAAGACCGUCAAAUUGCGGGAAAGGGGUCAACAGCCGUUCAGUACCAAGUCUCAGGGGAAACUUUGAGAUGGCCUUGCAAAGGGUAUGGUAAUAAGCUGACGGACAUGGUCCUAACCACGCAGCCAAGUCCUAAGUCAACAGAUCUUCUGUUGAUAUGGAUGCAGUUCACAGACUAAAUGUCGGUCGGGGAAGAUGUAUUCUUCUCAUAAGAUAUAGUCGGACCUCUCCUUAAUGGGAGCUAGCGGAUGAAGUGAUGCAACACUGGAGCCGCUGGGAACUAAUUUGUAUGCGAAAGUAUAUUGAUUAGUUUUGGAGUACUCGUGGUCG
Method in brief: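 The eight P1ex-region nucleotides of an intron in the knt kanamycin-resistance gene on pET-22b(+) were all randomised and the library put into E. coli BL21(DE3). Six replicate transformations were grown overnight at 37°C or 30°C on LB agar with or without 25 μg/mL kanamycin, together with 100 μg/mL carbenicillin, 50 μM IPTG and 0.2% rhamnose. Colonies were pooled and amplicon-sequenced on an Illumina HiSeq 2500. Fitness from DiMSum is the error-weighted combination of wild-type-normalised replicate fold changes, kanamycin over none.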

Sequence | self-splicing fitness (ln) (30 °C) | self-splicing fitness (ln) (37 °C)
UCUAAGCAAUAUUACGGACA | -2.39 ± 0.18 | -1.18 ± 0.17
UCUAAGCAAUAUUACGGACU | -3.51 ± 0.28 | -2.84 ± 0.27
UCUAAGCAAUAUUACGGCAG | -1.35 ± 0.13 | -0.508 ± 0.14
UCUAAGCAAUAUUACGGCCG | -1.36 ± 0.34 | 0.444 ± 0.3
UCUAAGCAAUAUUACGGCUC |  | -1.67 ± 0.35
UCUAAGCAAUAUUACGGGUA | -1.64 ± 0.11 | -0.58 ± 0.1
UCUAAGCAAUAUUACGUAAU | -3.41 ± 0.2 | -1.66 ± 0.19
UCUAAGCAAUAUUACGUAGU | -0.857 ± 0.05 | -0.481 ± 0.069
UCUAAGCAAUAUUACGUCGU | -1.19 ± 0.1 | -0.695 ± 0.12
UCUAAGCAAUAUUACGUGCA | -1.2 ± 0.12 | -0.538 ± 0.13
UCUAAGCAAUAUUACGUUGG | -1.6 ± 0.064 | -1.37 ± 0.086
UCUCAGCAAUAUUACGACCA | -0.757 ± 0.13 | -0.615 ± 0.14
UCUCAGCAAUAUUACGACGC |  | 0.221 ± 0.23
UCUCAGCAAUAUUACGACUC | -3.38 ± 0.38 | -2.02 ± 0.33
UCUCAGCAAUAUUACGAGCU | -1.48 ± 0.086 | -0.552 ± 0.12
UCUCAGCAAUAUUACGAUAC | -1.92 ± 0.28 | -2.46 ± 0.45
UCUCAGCAAUAUUACGAUCG | -1.29 ± 0.12 | -0.618 ± 0.15
UCUCAGCAAUAUUACGCAAU | -2.45 ± 0.23 | -1.89 ± 0.23
UCUCAGCAAUAUUACGCAUA | -2.22 ± 0.13 | -0.634 ± 0.12
UCUCAGCAAUAUUACGCCUC | -3.12 ± 0.27 | -2.27 ± 0.29

Sequence | self-splicing fitness (ln) (30 °C) | self-splicing fitness (ln) (37 °C)
UCUCAGCAAUAUUACGGACU | -1.23 ± 0.062 | -0.345 ± 0.088
UCUCAGCAAUAUUACGGCCG |  | -2.73 ± 0.38
UCUCAGCAAUAUUACGUAAG | -2.07 ± 0.12 | -1.17 ± 0.13
UCUCAGCAAUAUUACGUACU | -3.39 ± 0.28 | -1.2 ± 0.19
UCUCAGCAAUAUUACGUAUA | -2.86 ± 0.17 | -1.32 ± 0.13
UCUCAGCAAUAUUACGUCAU | -3.13 ± 0.2 | -3.29 ± 0.27
UCUCAGCAAUAUUACGUCGU | -2.11 ± 0.091 | -1.91 ± 0.11
UCUCAGCAAUAUUACGUCUU | -3.25 ± 0.17 | -2.83 ± 0.15
UCUCAGCAAUAUUACGUUGG | -3.58 ± 0.14 | -3.73 ± 0.23
UCUCAGCAAUAUUACGUUUG | -4.44 ± 0.19 | -3.1 ± 0.15
UCUGAGCAAUAUUACGCAAG | -3.36 ± 0.18 | -2.16 ± 0.19
UCUGAGCAAUAUUACGCCCU |  | -1.62 ± 0.33
UCUGAGCAAUAUUACGCGGC | -4.16 ± 0.47 | -3.58 ± 0.33
UCUGAGCAAUAUUACGCGUA | -2.5 ± 0.19 | 0.763 ± 0.13
UCUGAGCAAUAUUACGCGUG | -2.36 ± 0.16 | -0.768 ± 0.11
UCUGAGCAAUAUUACGCUCC | -2.04 ± 0.49 | 
UCUGAGCAAUAUUACGCUGG | -2 ± 0.16 | -1.11 ± 0.17
UCUGAGCAAUAUUACGGACG | -1.17 ± 0.35 | -2.21 ± 0.45
UCUGAGCAAUAUUACGGCAU | -2.79 ± 0.27 | 
UCUGAGCAAUAUUACGGCUA | -3.33 ± 0.42 | -2.58 ± 0.29
